B1: MF-T-SPDP-DM4 (antibody)
VH: QVELVQSGAEVKKPGESLKISCKGSGYSFTSYWIGWVRQAPGKGLEWMGIIDPGDSRTRYSPSFQGQVTISADKSISTAYLQWSSLKASDTAMYYCARGQLYGGTYMDGWGQGTLVTVSS
VL: DIALTQPASVSGSPGQSITISCTGTSSDIGGYNSVSWYQQHPGKAPKLMIYGVNNRPSGVSNRFSGSKSGNTASLTISGLQAEDEADYYCSSYDIESATPVFGGGTKLTVLGQDIVLTQPPSVSGAPGQRVTISCSGSSSNIGSNYVSWYQQLPGTAPKLLIYNDNQRPSGVPDRFSGSKSGTSASLAITGLQSEDEADYYCSTYDRRTFSVFGGGTKLTVLGQ
modifications: DM4 maytansinoid conjugated via SPDB (printed SPDP in Table 2) linker; DM4/Ab 3.6; attachment residues not stated
B2: MF-J-SPDP-DM4 (antibody, V domains shown)
VH: QVELVQSGAEVKKPGESLKISCKGSGYSFTNYWIGWVRQMPGKGLEWMGVIMPSDSYTRYSPSFQGQVTISADKSISTAYLQWSSLKASDTAMYYCARYGHGMYGGALDVWGQGTLVTVSS
VL: DIVLTQSPATLSLSPGERATLSCRASQSVRSSRLAWYQQKPGQAPRLLIYGASKRATGVPARFSGSGSGTDFTLTISSLEPEDFATYYCQQYYDFPPTFGQGTKVEIKR
modifications: DM4 maytansinoid conjugated via SPDB (printed SPDP in Table 2) linker; DM4/Ab 2.8; attachment residues not stated
B3: MOR06640-SPDP-DM4 (antibody, V domains shown)
VH: QVQLVQSGAEVKKPGESLKISCKGSGYSFTNYWIGWVRQMPGKGLEWMGVIMPSDSYTRYSPSFQGQVTISADKSISTAYLQWSSLKASDTAMYYCARYGHGMYGGALDVWGQGTLVTVSS
VL: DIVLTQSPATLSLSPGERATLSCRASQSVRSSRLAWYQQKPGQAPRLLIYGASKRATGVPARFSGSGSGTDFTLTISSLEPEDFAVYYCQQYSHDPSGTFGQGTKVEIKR
modifications: DM4 maytansinoid conjugated via SPDB (printed SPDP in Table 2) linker; DM4/Ab 3.6; attachment residues not stated
B4: MF-226-SPDP-DM4 (antibody, V domains shown)
VH: QVELVQSGAEVKKPGASVKVSCKASGYTFTGNYINWVRQAPGQGLEWMGIINPHGGDTKYAQKFQGRVTMTRDTSISTAYMELSSLRSEDTAVYYCARWHHGTWIFDYWGQGTLVTVSS
VL: DIVLTQPPSVSGAPGQRVTISCSGSSSNIGSNYVSWYQQLPGTAPKLLIYNDNQRPSGVPDRFSGSKSGTSASLAITGLQSEDEADYYCSTYDRRTFSVFGGGTKLTVLG
modifications: DM4 maytansinoid conjugated via SPDB (printed SPDP in Table 2) linker; DM4/Ab 3.3; attachment residues not stated
B5: MF-T Fab (Fab, V domains shown)
VH: QVELVQSGAEVKKPGESLKISCKGSGYSFTSYWIGWVRQAPGKGLEWMGIIDPGDSRTRYSPSFQGQVTISADKSISTAYLQWSSLKASDTAMYYCARGQLYGGTYMDGWGQGTLVTVSS
VL: DIALTQPASVSGSPGQSITISCTGTSSDIGGYNSVSWYQQHPGKAPKLMIYGVNNRPSGVSNRFSGSKSGNTASLTISGLQAEDEADYYCSSYDIESATPVFGGGTKLTVLG
notes: Tested as Fab ('KD of Fab'); the Fab constant domains are not
B6: MF-J Fab (Fab, V domains shown)
VH: QVELVQSGAEVKKPGESLKISCKGSGYSFTNYWIGWVRQMPGKGLEWMGVIMPSDSYTRYSPSFQGQVTISADKSISTAYLQWSSLKASDTAMYYCARYGHGMYGGALDVWGQGTLVTVSS
VL: DIVLTQSPATLSLSPGERATLSCRASQSVRSSRLAWYQQKPGQAPRLLIYGASKRATGVPARFSGSGSGTDFTLTISSLEPEDFATYYCQQYYDFPPTFGQGTKVEIKR
notes: as for B5
B7: MOR 06640 Fab (Fab, V domains shown)
VH: QVQLVQSGAEVKKPGESLKISCKGSGYSFTNYWIGWVRQMPGKGLEWMGVIMPSDSYTRYSPSFQGQVTISADKSISTAYLQWSSLKASDTAMYYCARYGHGMYGGALDVWGQGTLVTVSS
VL: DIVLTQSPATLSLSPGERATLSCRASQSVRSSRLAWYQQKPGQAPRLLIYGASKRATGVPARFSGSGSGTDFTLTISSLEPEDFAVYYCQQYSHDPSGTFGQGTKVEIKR
notes: Tested as Fab ('KD of Fab'); the Fab constant domains are not; also called MOR6640
B8: MF-226 Fab (Fab, V domains shown)
VH: QVELVQSGAEVKKPGASVKVSCKASGYTFTGNYINWVRQAPGQGLEWMGIINPHGGDTKYAQKFQGRVTMTRDTSISTAYMELSSLRSEDTAVYYCARWHHGTWIFDYWGQGTLVTVSS
VL: DIVLTQPPSVSGAPGQRVTISCSGSSSNIGSNYVSWYQQLPGTAPKLLIYNDNQRPSGVPDRFSGSKSGTSASLAITGLQSEDEADYYCSTYDRRTFSVFGGGTKLTVLG
notes: as for B5

Each binder was assayed against mesothelin expressed on cells (transfected MiaPaCa-2, HT29 C2, CHO A9; endogenous HelaMatu, OVCAR-3) (Homo sapiens (Human), UniProt Q13421 296-598) (assay: cell-based or functional assay).
Chain of mesothelin expressed on cells (transfected MiaPaCa-2, HT29 C2, CHO A9; endogenous HelaMatu, OVCAR-3) (Q13421 other isoform, or with tags, fused parts or gaps limits assumed): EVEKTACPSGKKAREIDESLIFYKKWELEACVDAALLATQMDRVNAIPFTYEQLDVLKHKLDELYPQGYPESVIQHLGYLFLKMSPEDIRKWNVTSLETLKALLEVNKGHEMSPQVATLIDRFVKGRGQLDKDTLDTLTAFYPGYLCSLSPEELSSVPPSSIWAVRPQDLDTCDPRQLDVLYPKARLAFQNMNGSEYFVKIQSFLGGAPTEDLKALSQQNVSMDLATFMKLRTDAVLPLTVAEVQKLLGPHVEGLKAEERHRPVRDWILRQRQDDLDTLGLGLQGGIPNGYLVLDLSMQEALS
In the case of B1, the “IC50 (nM), cell viability (WST-1), CHO A9* (Mesothelin+)” value (“IC50 (nM) … CHO A9* (Mesothelin+)” below) is reported as 1 nM, the “IC50 (nM), cell viability (WST-1), HT29 C2 (Mesothelin+)” value (shortened to “IC50 (nM) … HT29 C2 (Mesothelin+)”) is reported as 1.5 nM and the “IC50 (nM), cell viability (WST-1), HelaMatu” value (“IC50 (nM) … HelaMatu” for short) is reported as 0.45 nM. The “IC50 (nM), cell viability (WST-1), MiaPaCa-2 (Mesothelin+)” value (shortened to “IC50 (nM) … MiaPaCa-2 (Mesothelin+)”) was 1.3 nM and the “IC50 (nM), cell viability (WST-1), OVCAR-3” value (shortened to “IC50 (nM) … OVCAR-3”) was 2.8 nM.
For B2, the “IC50 (nM) … CHO A9* (Mesothelin+)” value was 0.35 nM, the “IC50 (nM) … HT29 C2 (Mesothelin+)” value was 0.3 nM and the “IC50 (nM) … HelaMatu” value was 0.2 nM. For the same binder, the “IC50 (nM) … MiaPaCa-2 (Mesothelin+)” value was 1.4 nM and the “IC50 (nM) … OVCAR-3” value was 0.9 nM.
For B3, the “IC50 (nM) … CHO A9* (Mesothelin+)” value was 1.2 nM, the “IC50 (nM) … HT29 C2 (Mesothelin+)” value was 0.21 nM and the “IC50 (nM) … HelaMatu” value was 0.6 nM. The “IC50 (nM) … MiaPaCa-2 (Mesothelin+)” value was 0.36 nM and the “IC50 (nM) … OVCAR-3” value was 1.07 nM.
With B4 the “IC50 (nM) … CHO A9* (Mesothelin+)” value was 1.3 nM, the “IC50 (nM) … HT29 C2 (Mesothelin+)” value was 8 nM and the “IC50 (nM) … HelaMatu” value was 0.9 nM. The “IC50 (nM) … MiaPaCa-2 (Mesothelin+)” value was 21 nM and the “IC50 (nM) … OVCAR-3” value was 14.8 nM.

Each binder was assayed against T1, mesothelin (40 kDa, C-terminal domain of the mesothelin precursor polypeptide) (Homo sapiens (Human), UniProt Q13421 296-598) (assay: KD of Fab; method not stated).
T1 construct: Antigen of the Fab KD values
T1 sequence (Q13421 other isoform, or with tags, fused parts or gaps limits assumed): as above
Binder B5 has a Kd of 16.3 nM.
For B6, the Kd was 9.2 nM.
B7 showed a Kd of 0.19 nM.
For B8, the Kd was 58.3 nM.

Reference: patent US20150322160A1 (Bayer, published 2015)
